Data reported in patent publication US20100279409A1, “METHOD FOR MODIFYING CELLUAR IMMUNE RESONSE BY MODULATING ACTIVIN ACTIVITY” (priority 2007, published 2010).

Key:
Human NK cells = test: IFN-γ ELISA of purified NK cells; format: cell-based; conditions: for IFN-γ production: NK cells
Description: A total of 1×10^5 highly purified human NK cells were cultured for 20 hours in medium supplemented with 20 U/ml IL-2, and 10 ng/ml IL-12. Either human recombinant activin-A, or TGF-β was added to the cultures, at concentrations of 10, 50 and 100 ng/ml. Supernatants were then tested for IFN-γ via ELISA, using standard methods. In these experiments 1×10^5 highly purified human NK cells were cultured as above, but were cultured with Poly I:C (10 μg/ml), or LPS (100 ng/ml), with or without 10, 50, or 100 ng/ml of recombinant human activin-A. In some cases, the known compound “SB431542,” which blocks activin-A binding to receptors was added. IFN-γ was then measured via ELISA, or by intracellular cytokine staining after 16 hours of culture, via addition of 1 μg/ml BFA, to prevent cytokine release. The impact of activin-A on production of IFN-γ by NK cells, in the absence of dendritic cells, was ascertained. Purified NK cells (1×10^5) were cultured in 96 well-plants, in media that was supplemented with 20 U/ml IL-2 and 10 ng/ml, IL-12, in the absence of, or with increasing concentrations of either activin-A, or TGF-β. Culture supernatants were assayed for IFN-γ after 24 hours of culture, using ELISAs, as described supra. As in the prior experiments, 1×10^5 purified NK cells were cultured in media supplemented with IL-2 only, or IL-2 plus IL-12, either with or without one of poly I:C or LPS, in the presence or absence of increased levels of activin-A.

Human MoDCs = test: Activin-A secretion by stimulated MoDCs; format: cell-based; conditions: MoDCs in GM-CSF and IL-4, 2-72 hours
Description: Human MoDCs were co-cultured, in a medium containing both GM-CSF and IL-4, with one of (i) intact E. coli, (ii) CD40L, (iii) a TLR ligand (LPS, R848, Poly I:C, or Pam3Cys, which bind, respectively, to TLR4, 7/8, 3, and 2/6), or (iv) one of the inflammatory mediators PGE2 or ATP. Culture was carried out for from 2-72 hours. Supernatants were collected, and assayed for activin-A, using standard methods.

MoDCs [1] = test: qRT-PCR kinetics of activin receptor mRNA in stimulated MoDCs; format: cell-based, human
Description: In follow up experiments, the kinetics of gene expression described in Example 1 were studied, by stimulating MoDCs with either of trimeric CD40L or LPS, via quantitative real time PCR, or “qRT-PCR,” using standard methods and primers specific for activin βA and the activin receptor molecules ALK-2, and ALK-4. The primers differed from those used in the RT-PCR work, described supra. Stimulus was accomplished with 2 μg/ml of CD40L trimer, or 100 ng/ml of E. coli derived LPS for anywhere from 2-24 hours. As a control, MoDCs were cultured in GM-CSF plus IL-4 for the same length of time.

NK cells [2] = test: NK cell viability by caspase and PI staining; format: cell-based, human; conditions: 24 hours
Description: With respect to testing viability, 1×10^5 purified NK cells were cultured as described supra, in 96 well-plates. After 24 hours of culture, cells were stained with antibodies to polycaspase, caspase 3/7, caspase 8 and PI.

[3] = tested on: NK cells (target cells K562 or Jurkat cells); test: NK cell killing of calcein-labeled target cells; format: cell-based, human; conditions: 100 ng/ml, 3 days culture, K562 or Jurkat targets, 4 hours
Description: 1×10^6 purified NK cells were cultured in 24 well-plates, either with a high dose of IL-2 (100 U/ml), or a combination of 20 U/ml of IL-2 and IL-12. The culturing took place in the absence of either of activin-A or TGF-β or 100 ng/ml of one of them. The culture continued for 3 days.
After the 3 days of culture, the NK cells were combined with target cells K562 or Jurkat cells, at effector (NK cells): target (K562 or Jurkat cells) ratios of 5:1, 2:1, and 0.1:1. The target cells had been labeled with calcein previously. The total number of labeled target cells was 2×10^4, and the mixture was incubated for 4 hours. The efficiency of killing was determined by measuring calcein dye release via spectrometry.

NK cells [4] = test: NKp30 expression on NK cells by flow cytometry; format: cell-based, human; conditions: NK cells after 3 day culture, 100 ng/ml
Description: In order to investigate the mechanism behind these differences, the same NK cells were purified and cryopreserved immediately after the 3 day culture period. The cells were thawed, washed, and stained for NCR. NKp30, with expression levels determined via flow cytometry. The level of expression was also determined using “ex vivo” samples, and NK cells that were cultured, without exposure to targets.

MoDCs [5] = test: qRT-PCR of IL-6 mRNA in MoDCs with follistatin; format: cell-based, human; conditions: follistatin 400 ng/ml
Description: When qRT-PCR was carried out, a 15 fold increase in IL-6 mRNA expression was observed 2 hours after MoDC stimulation and the 400 ng/ml dose of follistatin, with a peak at 4 hours, (30 fold), with a decrease over 6-24 hours.

MoDCs [6] = test: IL-12p35 expression, IL-12p70 and TNF-α secretion by CD40L-stimulated MoDCs; format: cell-based, human
Description: In view of this, the experiments were extended to investigate the impact, if any on IL-12p70, a potent TH1 cytokine, and pro-inflammatory TNF-α. The experiments were carried out in the same way as the prior experiments were.

MoDCs [7] = test: IL-10 secretion and mRNA in MoDCs with follistatin; format: cell-based, human
Text: Supernatants were screened, via standard ELISAs, for a large array of cytokines and chemokines, including pleiotropic IL-10.

[8] = tested on: CD8+ T cells co-cultured with MoDCs; format: cell-based, human; conditions: follistatin 400 ng/ml, nine days, IFN-γ secretion and CD107a expression
MoDCs [9] = test: IL-6 and cytokine ELISA of stimulated MoDCs with follistatin; format: cell-based, human; conditions: for IL-6 production: follistatin 0, 20, 100 ng/ml
Description: Prior studies had shown that, in an in vivo LPS challenge model, activin-A is released into the circulatory system rapidly, and can be detected prior to IL-6, and just prior to TNF-α release. […] This was tested by combining MoDCs with trimeric CD40L, or LPS, at a fixed concentration, together with varying concentrations of follistatin (0, 20, and 100 ng/ml) MoDCs were combined with GM-CSF and IL-4 as a control. Supernatants were collected after 4 hours, 24 hours, and 48 hours of culture, and then assayed for IL-6 via a standard ELISA.
Further experiments were then carried out, using trimeric CD40L or concentrations of LPS and follistatin that were even higher (1 ng/ml-150 ng/ml for LPS, and 400 ng/ml for follistatin).

immature MoDCs = test: Activin-A ELISA of CD40L-stimulated MoDCs with follistatin; format: cell-based, human; conditions: CD40L 2 μg/ml
Description: The early autocrine/paracrine release of activin-A by MoDCs was viewed as a possible potentiating feedback loop to further activin-A production. To test this, immature MoDCs were cultured with 2 μg/ml of CD40L, together with increasing concentrations of follistatin (0-400 ng/ml). Supernatants were collected over a 6 hour period and activin-A was qualified in a standard ELISA.

MoDC = test: Chemokine secretion by CD40L-stimulated MoDCs with follistatin; format: cell-based, human; conditions: 24 hours, increasing follistatin
Description: MoDC culture supernatants were screened following 24 hours of culture, using controls, and increasing concentration of follistatin, as described supra. Assays were carried out, following standard methods, for IL-12p70, TNF-α, IL-8, IP-10, RANTES, and MCP-1.

[10] = tested on: MoDCs co-cultured with NK cells; test: IFN-γ production in MoDC and NK cell co-culture with follistatin; format: cell-based, human
Description: The dendritic cells were obtained by culturing CD14^+ monocytes with GM-CSF and IL-4, for 6-7 days, which are standard culture conditions. A sample of 5×10^4 MoDCs were co-cultured with 1×10^5 NK cells, either with or without 400 ng/ml follistatin. As controls, samples of each type of cell were cultured individually.
IFN-γ production was measured, as described supra.
To test this, 5×10^4 immature MoDCs were cultured, in 96 well-plates, in standard media supplemented with 20 U/ml IL-2 and 20 ng/ml GM-CSF only, or with the addition of 1×10^5 autologous NK cells. In addition, the cells were stimulated with IL-12 and poly I:C. In addition, 400 ng/ml of follistatin was added to cultures in order to neutralize activin-A.
After 24 hours, supernatants were collected, and assayed for IFNγ via a standard ELISA.

[11] = CD40L-stimulated MoDCs with follistatin

## NC(=O)c1ccc(-c2nc(-c3ccc4c(c3)OCO4)c(-c3ccccn3)[nH]2)cc1 [SB431542, reference compound]
Human NK cells; added at a concentration of 10 for 30 minutes before activin-A
  activin-A suppression of IFN-γ production: reversed

## Poly I:C [reference compound]
Human NK cells; added to stimulated NK cultures
  IFN-γ production induced by stimulus: enhanced IFN-γ production
Human MoDCs
  activin-A secretion: significant amounts of activin-A after 6 hours of stimulation

## CCOCc1nc2c(N)nc3ccccc3c2n1CC(C)(C)O [R848]
Human MoDCs
  activin-A secretion: significant amounts of activin-A after 6 hours of stimulation

## CCCCC[C@H](O)/C=C/[C@H]1[C@H](O)CC(=O)[C@@H]1C/C=C\CCCC(=O)O [PGE2]
Human MoDCs
  activin-A secretion: neither of these stimulated activin-A release above the levels observed in unstimulated MoDC cultures

## CD40L: trimeric CD40L used to stimulate MoDCs
MoDCs [1]; after 2 hours
  activin RIIA mRNA: upregulated
MoDCs [1]; after 24 hours of stimulation, vs controls
  ALK-4 mRNA: significantly higher than controls
MoDCs [1]; early in the culture period
  ALK-4 mRNA: downregulated
MoDCs [1]; over 2-24 hours
  activin RIIB mRNA: early down regulation, followed by increases over time

## TGF-β
Human NK cells; IL-2 and IL-12, 20 hours, 10, 50, 100 ng/ml
  IFN-γ production: suppressing the production of IFN-γ
Human NK cells; IL-2 and IL-12, 24 hours, increasing concentrations
  IFN-γ production: inhibiting IFN-γ production
NK cells [2]
  apoptosis (polycaspase, caspase 3/7, caspase 8, PI staining): no indication of apoptosis
[3]
  killing ability of NK cells: significantly suppressed
NK cells [4]
  NKp30 expression: substantial down regulation of the receptor

## Pam3Cys
Human MoDCs
  activin-A secretion: did not

## Nc1ncnc2c1ncn2[C@@H]1O[C@H](COP(=O)(O)OP(=O)(O)OP(=O)(O)O)[C@@H](O)[C@H]1O [ATP]
Human MoDCs
  activin-A secretion: neither of these stimulated activin-A release above the levels observed in unstimulated MoDC cultures

B1: follistatin (protein, UniProt P19883 30-344, looked up)
Follistatin: GNCWLRQAKNGRCQVLYKTELSKEECCSTGRLSTSWTEEDVNDNTLFKWMIFNGGAPNCIPCKETCENVDCGPGKKCRMNKKNKPRCVCAPDCSNITWKGPVCGLDGKTYRNECALLKARCKEQPELEVQYQGRCKKTCRDVFCPGSSTCVVDQTNNAYCVTCNRICPEPASSEQYLCGNDGVTYSSACHLRKATCLLGRSIGLAYEGKCIKAKSCEDIQCTGGKKCLWDFKVGRGRCSLCDELCPDSKSDEPVCASDNATYASECAMKEAACSSGVLLEVKHSGSCNSISEDTEEEEEDEDQDYSFPISSILEW
MoDCs [5]; 2 hours after MoDC stimulation
  increase in IL-6 mRNA expression: 15 fold
MoDCs [5]; peak at 4 hours
  increase in IL-6 mRNA expression: 30 fold
MoDCs [6]; [11]
  IL-12p70 protein secretion: dose dependent enhancement
  TNF-α secretion: dose dependent enhancement peaking at 24 hours
MoDCs [6]; at 24 hours, CD40L plus follistatin
  IL-12p35 expression vs CD40L alone: at least 15 fold
MoDCs [6]; follistatin alone, without any other stimulus
  IL-12p70 secretion: did not induce IL-12p70 secretion
MoDCs [7]; CD40L-stimulated MoDCs with follistatin, peak at 4 hours
  IL-10 mRNA expression: increased IL-10 mRNA expression
MoDCs [7]; MoDCs with follistatin
  CD40L mediated IL-10 secretion: enhanced IL-10 secretion by the MoDCs in a dose dependent manner
  E. coli mediated IL-10 secretion: did not impact
[8]
  percentage of influenza matrix specific CD8+ T cells displaying effector function: significantly increased
  total number of influenza matrix specific CD8+ T cells displaying effector function: significantly increased
MoDCs [9]; CD40L-stimulated MoDCs
  IL-6 production: as follistatin concentration increased, so too did IL-6 production
MoDCs [9]; LPS 1 ng/ml-150 ng/ml, follistatin 400 ng/ml
  LPS mediated IL-6 production: not LPS mediated IL-6 production, at any dose
MoDCs [9]; LPS-stimulated MoDCs
  IL-6 production: did not influence its production
MoDCs [9]; follistatin 400 ng/ml
  CD40L mediated production of IL-6: dramatically enhanced
MoDCs [9]; follistatin alone, no other stimulus
  MoDC cytokine production: did not induce MoDC cytokine production
Immature MoDCs; follistatin 0-400 ng/ml, first 2-4 hours
  activin-A production: dose dependent decreases in activin-A production
Immature MoDCs; follistatin 400 ng/ml, at 6 hours
  activin-A production: unable to abrogate the level of activin-A production
MoDC
  IL-8 production: substantially enhanced
  MCP-1 production: substantially enhanced
  RANTES production: substantially enhanced
[10]; MoDCs co-cultured with NK cells, follistatin 400 ng/ml
  IFN-γ production: increased markedly
[10]; NK cells alone stimulated with cytokines
  IFN-γ production: had no impact
[10]; immature MoDCs and autologous NK cells, IL-12 and poly I:C, follistatin 400 ng/ml, 24 hours
  IFN-γ production: significant increases in IFN-γ production
